Target: T1, ghrelin (D-enantiomer, rat) (Rattus norvegicus) (UniProt Q9QYH7)
T1 sequence: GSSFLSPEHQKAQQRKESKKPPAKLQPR
Experiment: pulldown
Settings: bead assay, active conformation; 37 C

| Sequence | Kd [µM] |
| --- | --- |
| GGAGCUCAGACUUCACUCGUGUGAGGUAGUAAAAAAAAAAAACGUAAAUCCGAAGGUAACCAAUCCUACACGUACCACUGUCGGUUCCAC [A12] | < 0.1 |
| GGAGCUCAGACUUCACUCGUGUGAGGCAAUAAAAACUUAAGUCCGAAGGUAACCAAUCCUACACGUACCACUGUCGGUUCCAC [E3] | < 0.1 |
| GGAGCUCAGACUUCACUCGUGUGAGGUAGUAAAAAAAAAAACGUAAAUCCGAAGGUAACCAGUCCUACACGUACCACUGUCGGUUCCAC [F5] | < 0.1 |
| GGAGCUCAGACUUCACUCGUGUGAGGCAAUAAAACUUGUAAGUCCGAAGGUAACCAAUCCUACACGUACCACUGUCGGUUCCAC [B12] | < 0.1 |
| GGAGCUCAGACUUCACUCGUGUGAGGUAGUAAAAAAAAAACGUAAAUCCGAAGGUAACCAAUCCUACACGUACCACUGUCGGUUCCAC [A3] | < 0.1 |
| GGAGCUCAGACUUCACUCGUGUGAGGCAGUAAAACUUAAGUCCGAAGGUAACCAAUCCUACACGUACCACUGUCGGUUCCAC [G2] | < 0.1 |
| GGAGCUCAGACUUCACUCGUGUGAGGCAAUAAAACAUAAGUCCGAAGGUAACCAAUCCUACACGUACCACUGUCGGUUCCAC [B7] | < 0.1 |
| GGAGCUCAGACUUCACUCGUGUGAGGCAAUAAAACUUAAGUCCGAAGGUAACCAAUCCUGCACGUACCACUGUCGGUUCCAC [E12] | < 0.1 |
| GGAGCUCAGACUUCACUCGUGUGAGGUAGUAAAAAAAAAAAAAAAACAUAAAUCCGAAGGUAACCAAUCCUACACGUACCACUGUCGGUUCCAC [G5] | < 0.1 |

— patent publication US20060257867
